Assay results: patent publication CN111840217A (BEIJING EASTERN BIOTECH CO LTD, dated 2020)
Changes are numbered by the printed parent chain. One block for each binder: values may come before it.

Molecular target: T1, 人皮肤成纤维细胞(HDF)上的IL-17RA (UniProt Q96F46 33-866, limits assumed)
T1 sequence (looked up): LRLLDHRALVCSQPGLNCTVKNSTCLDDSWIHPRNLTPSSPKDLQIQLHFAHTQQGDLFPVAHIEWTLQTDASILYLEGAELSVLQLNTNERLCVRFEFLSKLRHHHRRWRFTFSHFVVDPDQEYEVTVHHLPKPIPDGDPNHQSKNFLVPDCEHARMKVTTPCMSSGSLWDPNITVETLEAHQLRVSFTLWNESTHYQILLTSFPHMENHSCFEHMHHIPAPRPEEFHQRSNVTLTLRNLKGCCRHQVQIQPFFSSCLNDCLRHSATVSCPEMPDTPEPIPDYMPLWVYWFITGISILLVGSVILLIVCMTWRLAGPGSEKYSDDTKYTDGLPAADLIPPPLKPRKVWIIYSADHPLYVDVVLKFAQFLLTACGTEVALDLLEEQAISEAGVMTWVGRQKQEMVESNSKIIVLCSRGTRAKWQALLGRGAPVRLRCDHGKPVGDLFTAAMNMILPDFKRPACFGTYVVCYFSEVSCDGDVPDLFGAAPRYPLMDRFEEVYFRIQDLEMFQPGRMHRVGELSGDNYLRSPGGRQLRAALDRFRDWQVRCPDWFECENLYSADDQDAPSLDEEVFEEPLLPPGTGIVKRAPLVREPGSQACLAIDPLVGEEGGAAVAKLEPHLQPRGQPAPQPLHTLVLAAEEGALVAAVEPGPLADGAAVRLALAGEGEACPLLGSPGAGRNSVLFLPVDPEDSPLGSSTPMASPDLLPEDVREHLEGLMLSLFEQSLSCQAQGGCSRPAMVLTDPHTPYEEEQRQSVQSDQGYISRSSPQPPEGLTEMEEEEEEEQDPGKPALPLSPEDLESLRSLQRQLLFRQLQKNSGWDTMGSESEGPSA
Test: cell-based or functional assay

B2: mAb-9全抗体 (antibody, human IgG1, kappa, V domains shown)
VH: QVQLVQSGAEVKKPGASVKVSCKASGYTWTSYGISWVRQAPGQGLEWMGWISTYSGNTNYAKKFLGRVTMTTDTSTSTAYMELRSLRSDDTAVYYCARRVLRLDYWGQGTLVTVSS
VL: DIQMTQSPSSLSASVGDRVTITCRASQSVHTGLNWYQQKPGKAPKLLIYGASNLQSGVPSRFSGSGSGTDFTLTISSLQPEDFATYYCQQFEHNPLTFGQGIKVEIKR
- 抑制HDF细胞产生IL-6 IC50(ng/ml): 24.8 ng/mL

B3: mAb-6全抗体 (antibody, human IgG1, kappa, V domains shown)
VH: B2 VH with T28S, W29F, S31R, K63Q, L65K
VL: EIVMTQSPATLSVSPGERATLSCRASQDISISLGWFQQKPGQAPRPLIYGWNTRATGVPARFSGSGSGTDFTLTISSLQSEDFAVYYCQQYSDPFLTFGGGTKVEIKR
- 抑制HDF细胞产生IL-6 IC50(ng/ml): 33.4 ng/mL

B4: mAb-4全抗体 (antibody, human IgG1, kappa, V domains shown)
VH: B2 VH with T28A, W29Y, T30S, S31N, L65I
VL: DIQMTQSPSSLSASVGDRVTITCRASQDIDSSLNWYQQKPGKAPKLLIYAASNRESGVPSRFSGSGSGTDFTLTISSLQPEDFATYYCQQWANMPGTFGQGTKVEIKR
- 抑制HDF细胞产生IL-6 IC50(ng/ml): 35.8 ng/mL

B6: mAb-3全抗体 (antibody, human IgG1, kappa, V domains shown)
VH: B2 VH with T28A, W29F, T30S, S31R, Y32F, K63H, F64L, V100F, R102K, L103F
VL: B4 VL
- 抑制HDF细胞产生IL-6 IC50(ng/ml): 33.4 ng/mL

B8: mAb-5全抗体 (antibody, human IgG1, kappa, V domains shown)
VH: B2 VH with Y27F, T28A, W29F, S31R, K62D, K63Q, L65I
VL: B4 VL
- 抑制HDF细胞产生IL-6 IC50(ng/ml): 22.9 ng/mL

B11: mAb-1全抗体 (antibody, human IgG1, kappa, V domains shown)
VH: B2 VH with T28S, W29Y, T30S, S31N, A61S, F64L, L65K
VL: B4 VL
- 抑制HDF细胞产生IL-6 IC50(ng/ml): 28.4 ng/mL

B12: mAb-2全抗体 (antibody, human IgG1, kappa, V domains shown)
VH: B2 VH with T28A, S31R, L65K
VL: B4 VL
- 抑制HDF细胞产生IL-6 IC50(ng/ml): 22.7 ng/mL

Next, values leading:

- 抑制HDF细胞产生IL-6 IC50(ng/ml): 117 ng/mL
B1: 上市产品Brodalumab的全抗体 (antibody, V domains shown)
VH: B2 VH with W29F, S31R, K62Q, F64L, L65Q, V100Q, R102Y, L103F
VL: EIVMTQSPATLSVSPGERATLSCRASQSVSSNLAWFQQKPGQAPRPLIYDASTRATGVPARFSGSGSGTDFTLTISSLQSEDFAVYYCQQYDNWPLTFGGGTKVEIK

- 抑制HDF细胞产生IL-6 IC50(ng/ml): 13.5 ng/mL
B5: mAb-8全抗体 (antibody, human IgG1, kappa, V domains shown)
VH: B2 VH with T28G, W29F, T30A, Y32R, L65E
VL: B2 VL

- 抑制HDF细胞产生IL-6 IC50(ng/ml): 29.7 ng/mL
B7: mAb-7全抗体 (antibody, human IgG1, kappa, V domains shown)
VH: B2 VH with W29F, K63N, F64L, L65Q
VL: B3 VL

- 抑制HDF细胞产生IL-6 IC50(ng/ml): 60.8 ng/mL
B9: mAb-11全抗体 (antibody, human IgG1, kappa, V domains shown)
VH: B2 VH with T28A, S31R, L65K
VL: B2 VL

- 抑制HDF细胞产生IL-6 IC50(ng/ml): 36.4 ng/mL
B10: mAb-10全抗体 (antibody, human IgG1, kappa, V domains shown)
VH: B2 VH with T28S, W29F, T30S, L65K
VL: B2 VL
